The source of these data is publication PMC5253704.

Experiment in all cases: ELISA; one protein (25 nM) or two proteins together (12.5 nM each) coated on wells 16 h at 4 °C in buffer A (20 mM Tris-HCl, 150 mM NaCl, 1 mM ZnCl2, 1 mM CaCl2, 1 mM MgCl2, pH 7.4); soluble protein at 50 to 0.78 nM; detected with antibody and HRP secondary; calculated KD
The target of test [1] is recombinant murine α3(V)-NTD (N-terminal non-triple helical domain of the α3(V) collagen chain) (murine).
The target in test [2] is recombinant glypican-1 (R&D Systems) (UniProt P35052).
Test [3] deals with recombinant FGF2 (UniProt P09038).
The target of test [4] is GPC1+FGF2 combined (co-adsorbed on the well) (UniProt P35052).

What is called Kd is the constant that tells how readily two partners part at equilibrium.

“recombinant FGF2 (from UniProt P09038 143-288) (ligand)”: the Kd in test [1] was 36 nM. The same measure, in the same setting: under “recombinant glypican-1 (R&D Systems) (from UniProt P35052 24-530) (natural protein)” stands 34 nM. For “recombinant murine α3(V)-NTD (N-terminal non-triple helical domain of the α3(V) collagen chain) (domain or fragment)”, the figures for the Kd in test [2], in test [3] and in test [4] were 33 nM, 35 nM and 16 nM, respectively.
